From patent US20170298113A1 (TEL HASHOMER MEDICAL RESEARCH INFRASTRUCTURE AND SERVICES, published 2017)
Values belong to the binder of their own block, whether it stands above or below them. *1 amine or outer side, *2 acyl side, *3 side chain or, on linkers, in order; H or OH if unused. Bridges are numbered along the chain shown (N, C = ends). Primed or numbered codes have the meaning given here. [ ]: non-standard residue; d: D form. N(2-mercaptoethyl)Gly = O=C(CN(CCS[*:3])[*:1])[*:2]; FITC′ = fluorescein isothiocyanate; GABA = NCCCC(=O)O

What was measured:
[1] = target: T1, human somatostatin receptor subtype SSTR2 (human, UniProt P30874 1-369); assay: FACS, transfected HEK-293 cells
T1 construct: whole, on cells
T1 sequence (P30874 whole entry): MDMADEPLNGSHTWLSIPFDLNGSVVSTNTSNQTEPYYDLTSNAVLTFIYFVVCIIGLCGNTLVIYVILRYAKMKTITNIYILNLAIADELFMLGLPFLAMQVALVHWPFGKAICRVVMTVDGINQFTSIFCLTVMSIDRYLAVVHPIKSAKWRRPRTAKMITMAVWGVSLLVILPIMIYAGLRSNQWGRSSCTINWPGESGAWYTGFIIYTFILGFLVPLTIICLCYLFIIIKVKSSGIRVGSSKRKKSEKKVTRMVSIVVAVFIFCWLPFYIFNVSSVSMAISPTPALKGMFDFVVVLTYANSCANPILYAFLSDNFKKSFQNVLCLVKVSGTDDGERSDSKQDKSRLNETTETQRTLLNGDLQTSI
Method: (§1) Biological activity assessment of the compounds to define a specific affinity to each subtype was performed by FACS and fluorescence imaging methods.
(§2) The transfection process is illustrated in FIG. 1. The transient transfection process was carried out before each experiment. Briefly, HEK cells were cultured in standard cell growth conditions. For testing, the cells were transferred into 96-well plates. The tested compounds were dissolved in DMSO and then diluted in a buffer solution to a final DMSO concentration of 5% as a composition according to the teachings herein. Various amounts of the thus-prepared compositions were added to the cells in medium in the 96-well plates and allowed to incubate for between 1 and 24 hours. Binding was determined using fluorescent microscopy and FACS.
(§3) The cells were incubated for additional time intervals ranging from 0.5-24 hr. At the end of the incubation period, supernatant was discarded and the cells were washed twice with cold PBS. The plates were examined using IX81 inverted microscope (Olympus, Japan) equipped with PR71 digital camera. Additionally, a FACS assay was used for quantitative analysis.

[2] = target: T2, human somatostatin receptor subtype SSTR5 (human, UniProt P35346 1-364); assay: FACS, transfected HEK-293 cells
T2 construct: whole, on cells; also called SSTRS
T2 sequence (P35346 whole entry): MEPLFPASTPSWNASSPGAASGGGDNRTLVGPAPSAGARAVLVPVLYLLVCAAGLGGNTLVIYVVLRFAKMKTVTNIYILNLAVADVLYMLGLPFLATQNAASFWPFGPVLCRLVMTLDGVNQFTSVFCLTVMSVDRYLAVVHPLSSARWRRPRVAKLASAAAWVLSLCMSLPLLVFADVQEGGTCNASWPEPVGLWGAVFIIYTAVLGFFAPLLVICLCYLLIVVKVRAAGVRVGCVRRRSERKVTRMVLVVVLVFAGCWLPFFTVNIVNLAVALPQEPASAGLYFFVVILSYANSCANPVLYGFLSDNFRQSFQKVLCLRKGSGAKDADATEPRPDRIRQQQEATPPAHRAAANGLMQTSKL
Method: as §1, §2, §3

[3] = target: T3, human somatostatin receptor subtype SSTR3 (human, UniProt P32745 1-418); assay: FACS, transfected HEK-293 cells
T3 construct: whole, on cells
T3 sequence (P32745 whole entry): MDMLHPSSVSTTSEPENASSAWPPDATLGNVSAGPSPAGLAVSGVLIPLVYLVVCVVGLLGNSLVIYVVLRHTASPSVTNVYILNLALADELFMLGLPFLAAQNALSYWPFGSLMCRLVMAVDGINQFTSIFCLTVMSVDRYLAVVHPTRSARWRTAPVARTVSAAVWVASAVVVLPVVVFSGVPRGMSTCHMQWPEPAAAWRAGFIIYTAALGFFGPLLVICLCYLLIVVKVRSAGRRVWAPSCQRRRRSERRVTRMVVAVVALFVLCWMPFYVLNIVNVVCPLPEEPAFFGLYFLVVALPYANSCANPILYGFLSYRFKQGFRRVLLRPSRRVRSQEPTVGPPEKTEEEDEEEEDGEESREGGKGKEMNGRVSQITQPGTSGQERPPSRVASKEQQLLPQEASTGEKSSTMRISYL
Method: as §1, §2, §3

[4] = target: T4, human somatostatin receptor subtype SSTR4 (human, UniProt P31391 1-388); assay: FACS, transfected HEK-293 cells
T4 construct: whole, on cells
T4 sequence (P31391 whole entry): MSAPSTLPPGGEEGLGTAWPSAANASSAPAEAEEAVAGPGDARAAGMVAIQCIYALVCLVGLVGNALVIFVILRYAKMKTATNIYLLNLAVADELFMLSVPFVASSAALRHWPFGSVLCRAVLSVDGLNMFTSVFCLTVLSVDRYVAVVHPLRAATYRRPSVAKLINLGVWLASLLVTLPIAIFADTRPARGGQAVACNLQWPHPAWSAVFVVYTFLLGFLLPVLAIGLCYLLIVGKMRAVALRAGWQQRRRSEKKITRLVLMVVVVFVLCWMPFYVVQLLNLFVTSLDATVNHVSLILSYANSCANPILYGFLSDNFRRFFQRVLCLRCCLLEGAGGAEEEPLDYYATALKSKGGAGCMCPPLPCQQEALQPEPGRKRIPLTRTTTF
Method: as §1, §2, §3

[5] = target: T1, human somatostatin receptor subtype …; assay: FACS, transfected HEK-293 cells; normalised to Compound 1
Method: as §1, §2, §3

[6] = target: T2, human somatostatin receptor subtype …; assay: as above
Method: as §1, §2, §3

[7] = target: T3, human somatostatin receptor subtype …; assay: as above
Method: as §1, §2, §3

[8] = target: T4, human somatostatin receptor subtype …; assay: as above
Method: as §1, §2, §3

[9] = target: T5, human somatostatin receptor subtype SSTR1 (human, UniProt P30872 1-391); assay: as above
T5 construct: whole, on cells
T5 sequence (P30872 whole entry): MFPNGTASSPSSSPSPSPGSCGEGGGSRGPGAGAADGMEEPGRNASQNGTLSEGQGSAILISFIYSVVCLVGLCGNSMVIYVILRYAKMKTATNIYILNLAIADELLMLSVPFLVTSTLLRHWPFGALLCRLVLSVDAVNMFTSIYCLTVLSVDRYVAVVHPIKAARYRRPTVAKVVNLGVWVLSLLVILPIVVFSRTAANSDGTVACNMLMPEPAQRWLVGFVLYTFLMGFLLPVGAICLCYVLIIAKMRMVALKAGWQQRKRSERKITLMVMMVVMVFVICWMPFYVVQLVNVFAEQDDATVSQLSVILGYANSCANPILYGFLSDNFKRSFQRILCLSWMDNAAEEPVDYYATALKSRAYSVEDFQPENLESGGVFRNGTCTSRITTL
Method: as §1, §2, §3

[10] = target: T1, human somatostatin receptor subtype …; assay: FACS, transfected HEK-293 cells; row normalised to highest
Method: as §1, §2, §3

[11] = target: T2, human somatostatin receptor subtype …; assay: as above
Method: as §1, §2, §3

[12] = target: T3, human somatostatin receptor subtype …; assay: as above
Method: as §1, §2, §3

[13] = target: T4, human somatostatin receptor subtype …; assay: as above
Method: as §1, §2, §3

[14] = target: T5, human somatostatin receptor subtype …; assay: as above
Method: as §1, §2, §3

[15] = target: human somatostatin receptor subtype SSTR5 (human) (UniProt P35346); assay: FACS, transfected HEK-293 cells; normalised to Compound 1
Sequence of human somatostatin receptor subtype SSTR5 (human) (P35346 whole entry): as the sequence (P35346 whole entry) above

[16] = target: human somatostatin receptor subtype SSTR1 (human) (UniProt P30872); assay: as above
Sequence of human somatostatin receptor subtype SSTR1 (human) (P30872 whole entry): as the sequence (P30872 whole entry) above

[17] = target: human somatostatin receptor subtype SSTR4 (human) (UniProt P31391); assay: as above
Sequence of human somatostatin receptor subtype SSTR4 (human) (P31391 whole entry): as the sequence (P31391 whole entry) above

[18] = target: human somatostatin receptor subtype SSTR2 (human) (UniProt P30874); assay: as above
Sequence of human somatostatin receptor subtype SSTR2 (human) (P30874 whole entry): as the sequence (P30874 whole entry) above

[19] = target: human somatostatin receptor subtype SSTR3 (human) (UniProt P32745); assay: as above
Sequence of human somatostatin receptor subtype SSTR3 (human) (P32745 whole entry): as the sequence (P32745 whole entry) above

[20] = target: human somatostatin receptor subtype SSTR5 (human) (UniProt P35346); assay: FACS, transfected HEK-293 cells
[21] = target: human somatostatin receptor subtype SSTR1 (human) (UniProt P30872); assay: FACS, transfected HEK-293 cells
[22] = target: human somatostatin receptor subtype SSTR4 (human) (UniProt P31391); assay: FACS, transfected HEK-293 cells
[23] = target: human somatostatin receptor subtype SSTR2 (human) (UniProt P30874); assay: FACS, transfected HEK-293 cells
[24] = target: human somatostatin receptor subtype SSTR3 (human) (UniProt P32745); assay: FACS, transfected HEK-293 cells
[25] = target: human somatostatin receptor subtype SSTR5 (human) (UniProt P35346); assay: FACS, transfected HEK-293 cells; row normalised to highest
[26] = target: human somatostatin receptor subtype SSTR1 (human) (UniProt P30872); assay: as above
[27] = target: human somatostatin receptor subtype SSTR4 (human) (UniProt P31391); assay: as above
[28] = target: human somatostatin receptor subtype SSTR2 (human) (UniProt P30874); assay: as above
[29] = target: human somatostatin receptor subtype SSTR3 (human) (UniProt P32745); assay: as above

- Relative binding affinity [1]: 10%
- Relative binding affinity [2]: 20%
- Relative binding affinity [3]: 14%
- Relative binding affinity [4]: 15%
- Binding affinity relative to Compound 1 [5]: 154 % of Compound 1
- Binding affinity relative to Compound 1 [6]: 70 % of Compound 1
- Binding affinity relative to Compound 1 [7]: 82 % of Compound 1
- Binding affinity relative to Compound 1 [8]: 67 % of Compound 1
- Binding affinity relative to Compound 1 [9]: 0 % of Compound 1
- Adjusted binding affinity [10]: 0.5
- Adjusted binding affinity [11]: 1
- Adjusted binding affinity [12]: 0.7
- Adjusted binding affinity [13]: 0.75
- Adjusted binding affinity [14]: 0
B1: Compound 9 (peptide)
peptide: {FITC′-GABA}-CRF[dW]KTF[N(2-mercaptoethyl)Gly]-NH2
modifications: disulfide 1-8
notes: Synthetic cyclic peptide-fluorescent agent conjugate; also called 21

- Binding affinity relative to Compound 1 (% of Compound 1) [15]: 4
- Binding affinity relative to Compound 1 (% of Compound 1) [16]: 100
- Binding affinity relative to Compound 1 (% of Compound 1) [17]: 36
- Binding affinity relative to Compound 1 (% of Compound 1) [18]: 123
- Binding affinity relative to Compound 1 (% of Compound 1) [19]: 141
- Relative binding affinity [20]: 9.3%
- Relative binding affinity [21]: 3.6%
- Relative binding affinity [22]: 13.3%
- Relative binding affinity [23]: 4.3%
- Relative binding affinity [24]: 15.7%
- Adjusted binding affinity [25]: 0.4
- Adjusted binding affinity [26]: 0.13
- Adjusted binding affinity [27]: 0.33
- Adjusted binding affinity [28]: 0.33
- Adjusted binding affinity [29]: 1
Binder: {FITC′-GABA}-[dF]CYW[dW]KTF[N(2-mercaptoethyl)Gly]-NH2 (disulfide 2-9) [Compound 4]

- Binding affinity relative to Compound 1 (% of Compound 1) [15]: 26
- Binding affinity relative to Compound 1 (% of Compound 1) [16]: 133
- Binding affinity relative to Compound 1 (% of Compound 1) [17]: 40
- Binding affinity relative to Compound 1 (% of Compound 1) [18]: 77
- Binding affinity relative to Compound 1 (% of Compound 1) [19]: 79
- Relative binding affinity [20]: 7.5%
- Relative binding affinity [21]: 4%
- Relative binding affinity [22]: 9%
- Relative binding affinity [23]: 5%
- Relative binding affinity [24]: 13.5%
- Adjusted binding affinity [25]: 0.56
- Adjusted binding affinity [26]: 0.3
- Adjusted binding affinity [27]: 0.67
- Adjusted binding affinity [28]: 0.37
- Adjusted binding affinity [29]: 1
Binder: {FITC′-GABA}-[dF]CFW[dW]RTF[N(2-mercaptoethyl)Gly]-NH2 (disulfide 2-9) [Compound 15]
